In assay [1] the test system is CD28 response element (RE/AP) reporter gene. The assay can be described thus: RE/AP luciferase reporter assay in MCC-specific T hybridoma cells. The format is cell-based. As to the method:
(§1) (FIG. 6A) OT-II CD4^+ T cells were infected with retrovirus expressing Myc-tagged V3 domain, V3 mutated at P330/1/4/6A (V3-4PA), or PR motif-deleted V3 (V3-ΔPR). Infected cells (green) were harvested, stimulated, and fixed. Conjugates were stained with anti-Myc plus a secondary Alexa 555-coupled antibody (orange), and anti-PKCθ plus a secondary Alexa 647-coupled antibody (red). Cells were analyzed as in FIG. 1A. (FIG. 6B) Quantitative analysis of the results shown in (FIG. 6A) from 30-50 T-APC conjugates. ** p<0.05. (FIG. 6C) MCC-specific T hybridoma cells were cotransfected with indicated vector, together with RE/AP-Luc and β-Gal reporter plasmids. Cells were stimulated and analyzed as in FIG. 1C. […] Cytokine-producing cells were analyzed by intracellular staining 8 h after restimulation. […] Normalized luciferase activity was determined in triplicates.
(§2) The CD28 response element (RE/AP)- or NFAT-luciferase (Luc) reporter genes have been described (Coudronniere, N. et al. Proc Natl Acad Sci USA 97, 3394-3399 (2000)). […] The cells were the lysed and Luc activity was quantitated and normalized to the activity of a cotransfected β-galactosidase (β-Gal) reporter gene.
(§3) To determine whether ectopic V3 expression also interfered with PKCθ-dependent TCR/CD28 signaling, the effects of V3 on activation of reporter genes and on T cell differentiation into effector Th cells were analyzed. […]

In another assay the test system is NFAT reporter gene. Description: NFAT luciferase reporter assay in MCC-specific T hybridoma cells. The format is cell-based. As to the method:
as §1, §2, §3

[2] abbreviates: coexpressed at increasing levels together with WT PKCθ.

B1: V3 domain: amino acid 282-379 of human PKCθ with N-terminal Myc tag, expressed from pMIG retroviral vector (protein)
chain: GINQKLMAEALAMIESTQQARCLRDTEQIFREGPVEIGLPCSIKNEARPPCLPTPGKREPQGISWESPLDEVDKMCHLPEPELNKERPSLQIKLKIED
modifications: left off: small tags and cut ends
notes: amino acid 282-379 of human PKCθ with N-terminal Myc tag, expressed from pMIG retroviral vector
Take B1: the “inhibition of RE/AP reporter gene activity stimulated by WT PKCθ” value in assay [1] (setting [2]) was “inhibited in a dose-dependent manner”. Also, the “activation of RE/AP reporter gene” value in assay [1] (expression of the V3 alone) is on record as “did not activate”. Moreover, the “inhibition of NFAT reporter gene activity stimulated by WT PKCθ” value in the assay on NFAT reporter gene (setting [2]) was “inhibited in a dose-dependent manner”. For the same molecule, in the assay on NFAT reporter gene (expression of the V3 alone), the “activation of NFAT reporter gene” value is “did not activate”.

The values above are taken from US20180335433A1, “COMPOSITIONS TARGETING PKC-THETA AND USES AND METHODS OF TREATING PKC-THETA PATHOLOGIES, ADVERSE IMMUNE RESPONSES AND DISEASES” (La Jolla Institute for Allergy and Immunology, priority 2011, published 2018).
